Experiment [1] concerns the target JNK1-dc20 (JNK1 with the C-terminal 20 residues truncated) (human) (UniProt P45983). In words: ITC; as a5, with 2 mM EDTA.
Experiment [2] has the same target. The experiment in a line: fluorescence polarisation; competitive: 50 nM CF-evJIP with JNK1 at ~60–80% complex, titrated with unlabeled competitor; 20 mM Tris pH 8.0, 100 mM NaCl, 0.05% Brij35P, 2 mM TCEP; 384-well plates.
The target in experiment [3] is JNK1-dc20 (JNK1 where the C-terminal 20 residues are truncated) (human) (UniProt P45983). The experiment in a line: fluorescence polarisation; competitive titration: JNK1 with CF-evJIP (50 nM; JNK1 at ~60-80% complex formation) titrated with unlabeled MBP-ATF2(19-100) constructs; data fit to a competition binding equation; 20 mM Tris pH 8.0, 100 mM NaCl, 0.05% Brij35P, 2 mM TCEP.

For experiment [4], the target named is pp-JNK1 (activated, phosphorylated JNK1) (human) (UniProt P45983). The experiment in a line: in vitro kinase assay fitted with a kinetic model; 5 nM pp-JNK or pp-p38, MBP-ATF2(19-100) substrate 0.5-100 uM, 5 mM ATP, kinase buffer; p-T71 and p-T69/T71 by quantitative dot-blots; binding rates (kon, koff) and reaction rates fitted simultaneously with the BioNetGen model (PyBioNetFit).

Substitutions are numbered along the chain they refer to. In names and notes the source's numbering stands.

Regarding MSDDKPFLCTAPGCGQRFTNEDHLAVHKHKHEMTLKFGPA (domain or fragment) [ATF2(19–58)-His6 (MBP removed, for ITC)], in experiment [1], the fold decrease in binding with EDTA against no EDTA was 10 fold.

Consider MSDDKPFLCTAPGCGQRFTNEDHLAVHKHKHEMTLKFGPA (domain or fragment) [ATF2(19–58) as used in the competitive fluorescence polarisation assay], for which the Kd in experiment [2] is 5 µM.

B1: MBP-ATF2(19-100)-WT (domain or fragment)
chain: MSDDKPFLCTAPGCGQRFTNEDHLAVHKHKHEMTLKFGPARNDSVIVADQTPTPTRFLKNCEEVGLFNELASPFENEFKKAS
Take B1: the dissociation constant (Kd) in experiment [3] was found to be 3.5 µM. In experiment [4], this molecule had a Kd of 3.5 µM, a koff of 19.6 s⁻¹ and a kon of 5.6e+06 M⁻¹ s⁻¹.

B2: MBP-ATF2-(19-100)-H47R (domain or fragment)
chain: B1 chain with H29R
In experiment [3], B2 had a Kd of 0.26 µM.

B3: MBP-ATF2-(19-100)-Q34R/H47R (domain or fragment)
chain: B1 chain with Q16R, H29R
With B3, the Kd in experiment [3] amounted to 0.05 µM.

B4: MBP-ATF2-(19-100)-V44A (domain or fragment)
chain: B1 chain with V26A
For B4, in experiment [3], the Kd is 15.5 µM.

B5: MBP-ATF2(19–100) K48E (domain or fragment)
chain: B1 chain with K30E
In turn, B5 yielded a fold decrease in binding against the wild type in experiment [2] of 10 fold.

B6: MBP-ATF2-(19-100)-Q34R (domain or fragment)
chain: B1 chain with Q16R
As to B6, the dissociation constant (Kd) in experiment [3] amounted to 0.87 µM. That is a sub-micromolar value.

B7: MBP-ATF2-(19-100)-V44E (domain or fragment)
chain: B1 chain with V26E
B7: the Kd in experiment [3] was determined as 56.2 µM.

B8: MBP-ATF2-(19-100)-H47E (domain or fragment)
chain: B1 chain with H29E
With B8, the Kd in experiment [3] was 39.3 µM.

These data come from PMC7666158.
